Data published in the RNAGym collection of RNA variant scans (doi:10.7554/elife.80360).

B1: Twister Ribozyme (parent)
chain: AACACUGCCAAUGCCGGUCCCAAGCCCGGAUAAAAGUGGAGGGGGCGG

Variants of: B1
Test: self-cleavage, relative activity (ratio to wild type); higher = more cleavage; co-transcriptional

Point of comparison: AACACUGCCAAUGCCGGUCCCAAGGCCGGAUAAAAGUGGAAGGGGCGG, self-cleavage 0.146. Against it:
- AACACUGCCAAUGCCGGUCCCAAGUCCGGAUAAAAGAGGAGGGGGCGG — higher, 0.392
- AACACUGCCAAUGCCGGUCCCAAGUCCGGAUAAAAGCGGAGGGGGCGG — lower, 0.133
- AACACUGCCAAUGCCGGUCCCAAGGCCGGAUAAAAGUGGAGGGAGCGG — higher, 0.514
- AACACUGCCAAUGCCGGUCCCAAGGCCGGAUAAAAGUGGAGGGGGCGG — higher, 0.458
- AACACUGCCAAUGCCGGUCCCAAGUCCGGAUAAAAGUGGAGGGGGCGG — higher, 0.881
- AACACUGCCAAUGCCGGUCCCAAGGCCGGAUAGAAGUGGAGGGGGCGG — higher, 0.148
- AACACUGCCAAUGCCGGUCCCAAGGCCGGAUAAAAGUGGAGGGGGUGG — higher, 0.286
- AACACUGCCAAUGCCGGUCCCAAGGACGGAUAAAAGUGGAGGGGGCGG — lower, 0.0961
- AACACUGCCAAUGCCGGUCCCAAGACCCGAUAAAAGUGGAGGGGGCGG — the same, 0.146
- AACACUGCCAAUGCCGGUCCCAAGACCUGAUAAAAGUGGAGGGGGCGG — the same, 0.146
- AACACUGCCAAUGCCGGUCCCAAGUACGGAUAAAAGUGGAGGGGGCGG — lower, 0.0893
- AACACUGCCAAUGCCGGUCCCAAGGCCGUAUAAAAGUGGAGGGGGCGG — higher, 0.651
- AACACUGCCAAUGCCGGUCCCAAGGCCGCAUAAAAGUGGAGGGGGCGG — lower, 0.109
- AACACUGCCAAUGCCGGUCCCAAGGCCGGAUAAAAGUGGAGGGGGCUG — higher, 0.155
- AACACUGCCAAUGCCGGUCCCAAGGCCGGAUAAAAGUGGAGGGGGCCG — lower, 0.142
- AACACUGCCAAUGCCGGUCCCAAGGCCGGAUAAAAGUGGAGGGGGCAG — higher, 0.153
- AACACUGCCAAUGCCGGUCCCAAGCACGGUUAAAAGUGGAGGGGGCGG — higher, 0.542
- AACACUGCCAAUGCCGGUCCCAAGCACGGCUAAAAGUGGAGGGGGCGG — lower, 0.0881
- AACACUGCCAAUGCCGGUCCCAAGUCCGGAUAAAAGUGGUGGGGGCGG — lower, 0.0985
- AACACUGCCAAUGCCGGUCCCAAGUCCGGAUAAAAGUGGCGGGGGCGG — lower, 0.109
- AACACUGCCAAUGCCGGUCCCAAGACCGGAUAAAAGUGGAUGGGGCGG — lower, 0.0916
- AACACUGCCAAUGCCGGUCCCAAGUCCGGAUAAAAGUGUAGGGGGCGG — higher, 0.158
- AACACUGCCAAUGCCGGUCCCAAGUCCGGAUAAAAGUGCAGGGGGCGG — lower, 0.117
- AACACUGCCAAUGCCGGUCCCAAGACCGGAUAAAAGUGGAGGGAGCGG — higher, 0.169
- AACACUGCCAAUGCCGGUCCCAAGACCGGAUAAAAGUGGAGGGCGCGG — lower, 0.111
- AACACUGCCAAUGCCGGUCCCAAGACCGGAUAAAAGUGGAGGGUGCGG — lower, 0.107
- AACACUGCCAAUGCCGGUCCCAAGGCCGGAUCAAAGUGGAGGGGGCGG — higher, 0.261
- AACACUGCCAAUGCCGGUCCCAAGGCCGGAUGAAAGUGGAGGGGGCGG — higher, 0.216
- AACACUGCCAAUGCCGGUCCCAAGGCCGGAUAAAAGUGGAGCGGGCGG — higher, 0.18
- AACACUGCCAAUGCCGGUCCCAAGGCCGGAUAAAAGUGGAGAGGGCGG — lower, 0.118
- AACACUGCCAAUGCCGGUCCCAAGUCCGGACAAAAGUGGAGGGGGCGG — higher, 0.61
- AACACUGCCAAUGCCGGUCCCAAGGCAGGAUAAAAGUGGAGGGGGCGG — lower, 0.105
- AACACUGCCAAUGCCGGUCCCAAGAACGGAUAAAAGUGGAGGGGGCGG — lower, 0.0988
- AACACUGCCAAUGCCGGUCCCAAGAUCGGAUAAAAGUGGAGGGGGCGG — lower, 0.0948
- AACACUGCCAAUGCCGGUCCCAAGUCCGGAUAAAAUUGGAGGGGGCGG — lower, 0.123
- AACACUGCCAAUGCCGGUCCCAAGUCCGGAUAAAACUGGAGGGGGCGG — higher, 0.15
- AACACUGCCAAUGCCGGUCCCAAGACCGGAUAAAAGUGGUGGGGGCGG — lower, 0.0741
- AACACUGCCAAUGCCGGUCCCAAGACCGGAUAAAAGUGGAGGGGGCAG — lower, 0.102
- AACACUGCCAAUGCCGGUCCCAAGGCCGGAUAAAAGUGAAGGGGGCGG — lower, 0.101
- AACACUGCCAAUGCCGGUCCCAAGGCCGGAUAACAGUGGAGGGGGCGG — lower, 0.115
- AACACUGCCAAUGCCGGUCCCAAGGCCGGAUAAUAGUGGAGGGGGCGG — higher, 0.158
- AACACUGCCAAUGCCGGUCCCAAGUCCGGAUAAAAGUGGAGGGCGCGG — higher, 0.692
- AACACUGCCAAUGCCGGUCCCAAGACCGGAAAAAAGUGGAGGGGGCGG — lower, 0.0924
- AACACUGCCAAUGCCGGUCCCAAGUCCGGAUAAAAGUUGAGGGGGCGG — higher, 0.614
- AACACUGCCAAUGCCGGUCCCAAGUCCGGAUAAAAGUCGAGGGGGCGG — higher, 0.847
- AACACUGCCAAUGCCGGUCCCAAGGCCGGAUAAAAGUGGAGGGGUCGG — lower, 0.145
- AACACUGCCAAUGCCGGUCCCAAGGCCGGAUAAAAGUGGAGGGGACGG — lower, 0.132
- AACACUGCCAAUGCCGGUCCCAAGGCCGGAUAAAAGUGGAGGGGCCGG — lower, 0.143
- AACACUGCCAAUGCCGGUCCCAAGACCGGAUAAAAGUGGAGAGGGCGG — lower, 0.0675
- AACACUGCCAAUGCCGGUCCCAAGACCGGAUAAAAGUGGAGUGGGCGG — lower, 0.0765
- AACACUGCCAAUGCCGGUCCCAAGUCCGGUUAAAAGUGGAGGGGGCGG — higher, 0.932
- AACACUGCCAAUGCCGGUCCCAAGUCCGGGUAAAAGUGGAGGGGGCGG — higher, 0.911
- AACACUGCCAAUGCCGGUCCCAAGGCCCGAUAAAAGUGGAGGGGGCGG — lower, 0.0925
